This experiment has as its target Growth Factor Receptor-bound 2 (GRB2), endogenous in HEK cells (human (endogenous in HEK)) (UniProt P62993). Put plainly: co-IP.

The record followed here is PMC5415409.

Chain of Growth Factor Receptor-bound 2 (GRB2), endogenous in HEK cells (human (endogenous in HEK)) (P62993 whole entry): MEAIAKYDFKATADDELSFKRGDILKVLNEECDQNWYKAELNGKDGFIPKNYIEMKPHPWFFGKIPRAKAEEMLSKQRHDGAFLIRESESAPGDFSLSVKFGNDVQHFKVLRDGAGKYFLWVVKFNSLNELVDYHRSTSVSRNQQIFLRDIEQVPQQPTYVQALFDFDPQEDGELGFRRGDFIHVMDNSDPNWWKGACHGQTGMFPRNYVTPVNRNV

As for “SWELL1^Δ91/+35 mutant, transiently expressed in HEK cells (natural protein)”, the densitometry ratio SWELL1^Δ91/+35/GRB2 in the GRB2 immunoprecipitate was 0.07.
